US11491212
Where “and” joins values, the source holds several entries; their conditions need not be identical. Identical values can stand only once.

B1: FIXa-Y155F/R338E/R403E/E410N (protein)
chain 1: not shown
chain 2: not shown
B2: FIXa-D203N/F205T/R338E/R403E (protein)
chain 1: not shown
chain 2: not shown
B3: FIXa-D203N/F205T/E410N (protein)
chain 1: not shown
chain 2: not shown
B4: FIXa-Y155F/R318Y/R338E/R403E (protein)
chain 1: not shown
chain 2: not shown
B5: FIXa-D203N/F205T/K228N (protein)
chain 1: not shown
chain 2: not shown
B6: FIXa-D203N/F205T/R318Y (protein)
chain 1: not shown
chain 2: not shown
B7: FIXa-D104N/K106S/R318Y/R338E/E410N (protein)
chain 1: not shown
chain 2: not shown
B8: FIXa R318Y/R338E/E410N/T412V (protein)
chain 1: not shown
chain 2: not shown
B9: FIXa-R338E/R403E/E410N (protein)
chain 1: not shown
chain 2: not shown
B10: FIXa-D203N/F205T/R338A (protein)
chain 1: not shown
chain 2: not shown
B11: FIXa-Y155F/R318Y/R338E/E410N (protein)
chain 1: not shown
chain 2: not shown
B12: FIXa-K228N/R318Y/E410N (protein)
chain 1: not shown
chain 2: not shown
B13: FIXa-D203N/F205T/R338E (protein)
chain 1: not shown
chain 2: not shown

Biological target: Factor X (FX), P00742
Sequence (P00742 whole entry, looked up): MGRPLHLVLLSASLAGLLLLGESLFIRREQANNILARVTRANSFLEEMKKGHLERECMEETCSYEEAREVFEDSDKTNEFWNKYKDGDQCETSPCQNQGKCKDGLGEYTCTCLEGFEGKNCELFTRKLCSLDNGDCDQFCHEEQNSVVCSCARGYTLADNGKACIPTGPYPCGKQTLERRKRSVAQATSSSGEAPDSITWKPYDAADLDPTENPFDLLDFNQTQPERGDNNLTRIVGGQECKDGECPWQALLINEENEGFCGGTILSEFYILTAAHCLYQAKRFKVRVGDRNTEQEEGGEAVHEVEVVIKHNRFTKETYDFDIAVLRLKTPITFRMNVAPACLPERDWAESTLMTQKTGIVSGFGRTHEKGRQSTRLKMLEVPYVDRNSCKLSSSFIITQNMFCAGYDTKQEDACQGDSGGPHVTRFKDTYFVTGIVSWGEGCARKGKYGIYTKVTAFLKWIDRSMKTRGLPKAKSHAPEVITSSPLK

Row | Protein | kcat [s⁻¹] | KM [µM] | KM for FX activation by FIXa in the Xase complex (FVIIIa/PC-PS/Ca2+), fluorogenic Spectrafluor FXa assay [µM] | % of WT kcat/KM | kcat (Catalytic activity of FIXa variants) [s⁻¹]
1 | B1 | 5.9 | – | – | – | –
2 | B2 | 0.9 | 0.0511 | 0.0511 | – | –
3 | B3 | 1.7 | 0.0455 | 0.0455 | – | –
4 | B4 | 5.1 | 0.0671 | – | – | –
5 | B5 | 0.6 | 0.0399 | 0.0399 | – | –
6 | B6 | 0.9 | 0.0475 | 0.0475 | – | –
7 | B7 | 4.8 | 0.0189 | 0.0189 | 581% and 564% | –
8 | B8 | – | – | – | – | 6.3
9 | B9 | 5.8 | 0.0367 | 0.0455 | – | –
10 | B10 | 2.3 | 0.0385 | 0.0385 | – | –
11 | B11 | 5.6 | 0.016 | 0.016 | 835% and 810% | –
12 | B12 | 5 | 0.042 | 0.042 | 272% and 264% | –
13 | B13 | 2.5 | 0.0241 | 0.0241 | – | –
